The values below come from paper PMC6015067.

The target in assay [1] is LIM protein Ajuba (human (endogenous in HTC75)) (UniProt Q96IF1). In words: co-IP; IP-Western of endogenous proteins from HTC75 total extracts (also IMR90) with Ajuba serum or antibodies to RPA70, RPA32 or RPA14; cells untreated, treated with 2 mM hydroxyurea for 24 hr (association reduced) or synchronized by double thymidine block and released for 2 hr (no perceptible effect).

Assay [2] deals with His-tagged full-length Ajuba (UniProt Q96IF1). In words: pull-down; His-tag pull-down on Ni-NTA beads of proteins co-translated in one rabbit reticulocyte lysate reaction with 35S-methionine; beads blocked with 2% BSA, 30 minutes at room temperature, TBST pH 8.0, six washes; autoradiography, signal normalized to input and number of methionines.

RPA70-OB½ABC, sequence (P27694 234-612): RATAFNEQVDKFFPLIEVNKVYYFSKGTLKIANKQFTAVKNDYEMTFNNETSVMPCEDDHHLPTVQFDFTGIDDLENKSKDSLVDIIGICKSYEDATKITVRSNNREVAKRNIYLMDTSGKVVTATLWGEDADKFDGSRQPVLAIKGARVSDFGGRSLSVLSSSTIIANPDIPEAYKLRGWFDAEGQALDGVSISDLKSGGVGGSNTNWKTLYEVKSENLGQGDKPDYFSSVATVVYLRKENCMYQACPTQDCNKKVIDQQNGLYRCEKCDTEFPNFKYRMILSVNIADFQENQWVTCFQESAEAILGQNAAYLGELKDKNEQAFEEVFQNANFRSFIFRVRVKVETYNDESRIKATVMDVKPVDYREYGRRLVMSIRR

Consider total RPA, for which the pull down efficiency (% of total RPA in association with Ajuba) in assay [1] was 2 to 5%.

Substance “RPA70-OB½ABC (from UniProt P27694 234-612) (domain or fragment)” displayed a pull down relative to full-length RPA70 (set at 100%) in assay [2] of 58.7%.
